Experimental data reported in US20140314790A1 (ALBERT EINSTEIN COLLEGE OF MEDICINE OF YESHIVA UNIVERSITY, published 2014).

Columns and labels:
[1] = target: T1, amyloid precursor protein (APP), transfected into HeLa or HEK293 cells (UniProt P05067 18-770); test: α-Flag IP from HeLa/APP cells incubated with Flagged peptide, Western blot for APP
T1 construct: whole, on cells; Scheinfeld et al, 2002)'; also called mature APP; HeLa-APP

[2] = target: T2, β-CTF (C-terminal fragment of APP made by β-secretase cleavage) (UniProt P05067 672-770); test: α-Flag IP from HeLa/APP cells incubated with N3-2A-F, Western blot for APP-CTFs
T2 construct: domain: β-CTF; also called APP-CTF
T2 sequence (P05067 672-770 limits assumed): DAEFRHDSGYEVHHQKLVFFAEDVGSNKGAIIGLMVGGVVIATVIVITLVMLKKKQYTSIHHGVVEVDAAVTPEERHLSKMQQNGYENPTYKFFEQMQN

T1 sequence (P05067 18-770): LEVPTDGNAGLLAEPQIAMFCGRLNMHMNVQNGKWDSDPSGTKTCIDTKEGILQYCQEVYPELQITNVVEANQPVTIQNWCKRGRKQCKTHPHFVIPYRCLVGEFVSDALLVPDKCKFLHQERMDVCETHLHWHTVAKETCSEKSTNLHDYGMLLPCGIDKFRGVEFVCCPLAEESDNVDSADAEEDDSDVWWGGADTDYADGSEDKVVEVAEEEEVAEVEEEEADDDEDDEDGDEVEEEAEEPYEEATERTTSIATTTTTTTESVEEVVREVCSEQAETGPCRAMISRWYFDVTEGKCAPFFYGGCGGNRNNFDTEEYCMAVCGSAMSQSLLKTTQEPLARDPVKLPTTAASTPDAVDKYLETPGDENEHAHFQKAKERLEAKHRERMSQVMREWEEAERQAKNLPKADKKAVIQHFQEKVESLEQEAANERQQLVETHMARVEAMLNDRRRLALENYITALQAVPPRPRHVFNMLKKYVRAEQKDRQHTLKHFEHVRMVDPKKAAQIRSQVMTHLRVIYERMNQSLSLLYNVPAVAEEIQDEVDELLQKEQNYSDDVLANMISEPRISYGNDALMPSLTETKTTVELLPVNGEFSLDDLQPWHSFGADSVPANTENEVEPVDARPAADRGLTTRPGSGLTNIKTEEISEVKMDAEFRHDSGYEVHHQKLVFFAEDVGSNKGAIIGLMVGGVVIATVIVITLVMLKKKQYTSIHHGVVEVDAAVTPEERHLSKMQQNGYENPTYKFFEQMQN

binding result [1]	binding result [2]	Binder
no binding (tested: 40 µM)	–	DDVAYCGLKY (peptide, not shown: small tags and cut ends) [N3-4A-F (single amino acid N3 mutant N3-4A with Flag epitope)]
–	no binding (tested: 40 µM)	DAVYYCGLKY (peptide, not shown: small tags and cut ends, also called BRI2-derived peptide) [N3-2A fused to a C-terminal Flag epitope (N3-2A-F)]
